Molecular target: Lsr2 P103A (Mycobacterium tuberculosis, UniProt P9WIP7 1-112, P101A)
Experiment: EMSA

B1: C42 (dsDNA)
DNA 1: AAAAATCTCTAAAAAATCTCTAAAAATCTCTAAAAAATCTCT
DNA 2: AGAGATTTTTTAGAGATTTTTAGAGATTTTTTAGAGATTTTT
- binding result: binds
